Test results: article PMC5125647, “Multivalent Interactions of Human Primary Amine Oxidase with the V and C2_(2) Domains of Sialic Acid-Binding Immunoglobulin-Like Lectin-9 Regulate Its Binding and Amine Oxidase Activity” (PLoS ONE, 2016)
Numbering of substitutions follows the chain as printed. Numbers in names are those of the source.

B1: Siglec-9-ΔV (C2_(12); residues 145-348) (domain or fragment, UniProt Q9Y336 145-348, looked up)
chain: RPNILIPGTLESGCPQNLTCSVPWACEQGTPPMISWIGTSVSPLDPSTTRSSVLTLIPQPQDHGTSLTCQVTFPGASVTTNKTVHLNVSYPPQNLTMTVFQGDGTVSTVLGNGSSLSLPEGQSLRLVCAVDAVDSNPPARLSLSWRGLTLCPSQPSNPGVLELPWVHLRDAAEFTCRAQNPLGSQQVYLNVSLQSKATSGVTQG
notes: Siglec-9, UniProtKB Q9Y336, C2_(1) and C2_(2) domains without the V domain, residues 145-348; The construct has a secretion signal for insect cell production before the tags; also called Siglec-9-EC-ΔV; source: baculovirus, Tn5 (High Five) insect cells, secreted into the medium, purified (Ni2+ resin, Superdex 200 gel filtration)
B2: Siglec-9-EC (extracellular region of sialic acid-binding immunoglobulin-like lectin-9, V-C2_(12); residues 26-348) (domain or fragment, UniProt Q9Y336 26-348, looked up)
chain: QSSVTVQEGLCVHVPCSFSYPSHGWIYPGPVVHGYWFREGANTDQDAPVATNNPARAVWEETRDRFHLLGDPHTKNCTLSIRDARRSDAGRYFFRMEKGSIKWNYKHHRLSVNVTALTHRPNILIPGTLESGCPQNLTCSVPWACEQGTPPMISWIGTSVSPLDPSTTRSSVLTLIPQPQDHGTSLTCQVTFPGASVTTNKTVHLNVSYPPQNLTMTVFQGDGTVSTVLGNGSSLSLPEGQSLRLVCAVDAVDSNPPARLSLSWRGLTLCPSQPSNPGVLELPWVHLRDAAEFTCRAQNPLGSQQVYLNVSLQSKATSGVTQG
notes: Siglec-9, UniProtKB Q9Y336, extracellular region with the V, C2_(1) and C2_(2) domains, residues 26-348; The construct has a secretion signal for insect cell production before the tags; The His tag is called cleavable, but no cleavage is described; Dimer by SEC retention (85 kDa); Insect-cell glycosylation; eight putative N-glycosylation sites; Cloning details are in S1 Text; also called WT; …
B3: Siglec-9-EC/R284S (domain or fragment, UniProt Q9Y336 26-348, looked up)
chain: B2 chain with R259S
notes: Siglec-9, UniProtKB Q9Y336, extracellular region, residues 26-348, with R284S in the C2_(2) domain; Made from the Siglec-9-EC production vector by site-directed mutagenesis; also called R284S mutant; source: baculovirus, Tn5 (High Five) insect cells, secreted into the medium, purified (Ni2+ resin, Superdex 200 gel filtration)
B4: Siglec-9-EC/R290S (domain or fragment, UniProt Q9Y336 26-348, looked up)
chain: B2 chain with R265S
notes: Siglec-9, UniProtKB Q9Y336, extracellular region, residues 26-348, with R290S in the C2_(2) domain; Made from the Siglec-9-EC production vector by site-directed mutagenesis; also called R290S mutant; source: baculovirus, Tn5 (High Five) insect cells, secreted into the medium, purified (Ni2+ resin, Superdex 200 gel filtration)

Key:
[1] = biological target: T1, human primary amine oxidase (hAOC3) (human, UniProt Q16853 1-763, topaquinone (TPQ) cofactor, modified from Tyr471; N-glycans attached to N137, N232, N294, N592, N618 and N666, with sialic acids); test: SPR; hAOC3 immobilised; one concentration (0.5 uM) of each Siglec-9 protein; relative binding normalised to the first control condition; conditions: both partners purified
T1 construct: human primary amine oxidase (AOC3, VAP-1); In the functional assays hAOC3 stood on live CHO-hAOC3 cells or in CHO-hAOC3 lysate; also called vascular adhesion protein-1; VAP-1
T1 sequence: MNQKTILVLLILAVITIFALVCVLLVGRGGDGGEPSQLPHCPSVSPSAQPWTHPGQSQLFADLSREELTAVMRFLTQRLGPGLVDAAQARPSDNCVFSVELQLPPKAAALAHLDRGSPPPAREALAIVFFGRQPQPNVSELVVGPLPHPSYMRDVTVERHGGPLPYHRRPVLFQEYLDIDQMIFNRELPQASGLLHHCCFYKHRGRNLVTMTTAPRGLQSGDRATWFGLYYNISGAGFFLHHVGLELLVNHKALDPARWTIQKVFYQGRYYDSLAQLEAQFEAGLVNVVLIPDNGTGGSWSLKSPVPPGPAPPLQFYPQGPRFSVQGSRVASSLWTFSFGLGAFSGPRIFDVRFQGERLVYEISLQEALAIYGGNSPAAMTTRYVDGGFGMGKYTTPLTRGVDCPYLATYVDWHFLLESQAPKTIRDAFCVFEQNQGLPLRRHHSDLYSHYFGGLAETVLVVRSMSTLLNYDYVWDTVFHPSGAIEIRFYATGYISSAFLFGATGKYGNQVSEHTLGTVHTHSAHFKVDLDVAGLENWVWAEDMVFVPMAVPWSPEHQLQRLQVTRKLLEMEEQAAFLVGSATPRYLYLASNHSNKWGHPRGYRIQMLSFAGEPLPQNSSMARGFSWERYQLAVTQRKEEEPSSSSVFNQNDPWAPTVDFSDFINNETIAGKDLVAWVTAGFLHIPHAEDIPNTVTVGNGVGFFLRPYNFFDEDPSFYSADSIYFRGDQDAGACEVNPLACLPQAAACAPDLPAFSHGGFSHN

[2] = biological target: T1, human primary amine oxidase (hAOC3); test: SPR; hAOC3 immobilised; five to seven concentrations of Siglec-9-EC, R284S or R290S; kon and koff determined separately for every curve with Biaeval, Kd as their ratio; average without the highest and lowest value; conditions: both partners purified
[3] = biological target: T1, human primary amine oxidase (hAOC3); test: as above; conditions: both partners purified; remark: listed apart in the source
[4] = biological target: T1, human primary amine oxidase (hAOC3); test: SPR; BiacoreX; hAOC3 amine-coupled to a CM5 chip (10 000 RU); 20 ul of 0.3-31 uM Siglec-9-EC injected at 25 C; running buffer HBS (10 mM HEPES, 150 mM NaCl, pH 7.4) with 0.005% Surfactant-P20; apparent Kd from responses at the end of injection against concentration, steady state and one-to-one model assumed, non-linear regression (GraphPad); two protein preparations; conditions: both partners purified
[5] = biological target: T1, human primary amine oxidase (hAOC3); test: cell-based or functional assay
[6] = biological target: the molecule itself; test: SEC; Superdex 200 10/300 GL, 20 mM HEPES pH 7.4, 150 mM NaCl; size from the retention time against standard proteins

Binder	binding relative to WT [1]	maximal binding at the highest concentration [2]	Kd [3]	koff [3]	kon [3]	Kd [4]	amine oxidase activity of intact CHO-hAOC3 cells on [7-14C]benzylamine with 5 uM Siglec-9-EC added before the substrate (a similar increase with 1 uM in Fig 7C) [5]	stoichiometry N [6]
B1	< 10%							
B2		3120 RU	1040 ± 870 nM	0.00691 s⁻¹	11200 M⁻¹ s⁻¹	4.6 ± 0.93 µM	2 fold	2
B3		1130 RU	140 nM	0.00373 s⁻¹	32100 M⁻¹ s⁻¹			
B4		1760 RU	530 ± 500 nM	0.0031 s⁻¹	11000 M⁻¹ s⁻¹			
